# T1: pro-caspase-4 (UniProt P49662 1-377, limits assumed)
# T1 sequence (looked up): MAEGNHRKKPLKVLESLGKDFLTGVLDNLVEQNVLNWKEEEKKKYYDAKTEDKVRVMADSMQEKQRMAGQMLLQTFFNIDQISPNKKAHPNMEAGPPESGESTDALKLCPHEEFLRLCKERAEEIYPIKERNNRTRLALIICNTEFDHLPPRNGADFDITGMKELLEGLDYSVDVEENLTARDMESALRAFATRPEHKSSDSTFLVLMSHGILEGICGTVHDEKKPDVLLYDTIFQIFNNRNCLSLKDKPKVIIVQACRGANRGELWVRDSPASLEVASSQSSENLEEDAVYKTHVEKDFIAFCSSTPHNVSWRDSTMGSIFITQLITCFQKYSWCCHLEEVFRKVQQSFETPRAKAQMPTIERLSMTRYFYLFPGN
# T2: c-CLAP (human, UniProt O95999 1-233, limits assumed)
# T2 sequence (looked up): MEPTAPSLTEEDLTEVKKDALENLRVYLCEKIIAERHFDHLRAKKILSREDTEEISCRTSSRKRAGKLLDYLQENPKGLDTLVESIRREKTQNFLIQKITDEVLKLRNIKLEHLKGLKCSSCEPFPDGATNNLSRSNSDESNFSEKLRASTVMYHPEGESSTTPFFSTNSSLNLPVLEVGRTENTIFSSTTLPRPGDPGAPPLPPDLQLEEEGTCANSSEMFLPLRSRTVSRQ
# T3: Apaf-1 (human, UniProt O14727 1-1248, limits assumed)
# T3 sequence (looked up): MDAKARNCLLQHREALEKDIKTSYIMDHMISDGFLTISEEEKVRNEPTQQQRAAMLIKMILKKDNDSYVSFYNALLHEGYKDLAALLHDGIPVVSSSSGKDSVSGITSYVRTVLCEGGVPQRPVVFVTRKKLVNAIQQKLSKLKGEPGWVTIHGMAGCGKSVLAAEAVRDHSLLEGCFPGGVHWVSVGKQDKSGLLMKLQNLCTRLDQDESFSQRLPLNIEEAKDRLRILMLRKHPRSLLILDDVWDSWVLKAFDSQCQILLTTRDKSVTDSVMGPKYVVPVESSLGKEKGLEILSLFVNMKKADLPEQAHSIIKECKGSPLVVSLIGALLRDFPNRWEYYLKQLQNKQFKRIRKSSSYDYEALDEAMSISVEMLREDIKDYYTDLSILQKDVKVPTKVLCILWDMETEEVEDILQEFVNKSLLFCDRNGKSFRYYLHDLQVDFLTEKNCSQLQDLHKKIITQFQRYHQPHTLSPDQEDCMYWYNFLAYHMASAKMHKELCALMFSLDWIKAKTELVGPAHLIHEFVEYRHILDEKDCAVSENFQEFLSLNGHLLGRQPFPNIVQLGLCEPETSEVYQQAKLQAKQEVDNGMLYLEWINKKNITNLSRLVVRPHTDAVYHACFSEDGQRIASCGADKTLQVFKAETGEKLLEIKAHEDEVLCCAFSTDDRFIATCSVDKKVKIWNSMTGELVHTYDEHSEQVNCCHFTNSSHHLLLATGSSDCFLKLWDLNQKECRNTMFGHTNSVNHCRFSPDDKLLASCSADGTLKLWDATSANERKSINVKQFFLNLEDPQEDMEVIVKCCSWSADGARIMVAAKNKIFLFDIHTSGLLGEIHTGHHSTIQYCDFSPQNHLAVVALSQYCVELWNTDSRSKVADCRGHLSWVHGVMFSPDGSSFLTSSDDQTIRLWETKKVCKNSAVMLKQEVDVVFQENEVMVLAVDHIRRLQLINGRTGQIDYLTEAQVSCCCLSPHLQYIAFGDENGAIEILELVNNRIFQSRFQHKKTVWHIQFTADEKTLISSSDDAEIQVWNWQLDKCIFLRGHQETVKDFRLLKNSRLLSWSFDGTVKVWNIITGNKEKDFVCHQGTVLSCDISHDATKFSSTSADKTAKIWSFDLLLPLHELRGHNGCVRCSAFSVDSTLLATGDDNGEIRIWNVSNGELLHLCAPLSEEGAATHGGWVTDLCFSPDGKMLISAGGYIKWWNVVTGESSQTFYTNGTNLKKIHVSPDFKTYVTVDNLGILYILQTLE
# T4: pro-caspase-2 (UniProt P42575 1-452, limits assumed)
# T4 sequence (looked up): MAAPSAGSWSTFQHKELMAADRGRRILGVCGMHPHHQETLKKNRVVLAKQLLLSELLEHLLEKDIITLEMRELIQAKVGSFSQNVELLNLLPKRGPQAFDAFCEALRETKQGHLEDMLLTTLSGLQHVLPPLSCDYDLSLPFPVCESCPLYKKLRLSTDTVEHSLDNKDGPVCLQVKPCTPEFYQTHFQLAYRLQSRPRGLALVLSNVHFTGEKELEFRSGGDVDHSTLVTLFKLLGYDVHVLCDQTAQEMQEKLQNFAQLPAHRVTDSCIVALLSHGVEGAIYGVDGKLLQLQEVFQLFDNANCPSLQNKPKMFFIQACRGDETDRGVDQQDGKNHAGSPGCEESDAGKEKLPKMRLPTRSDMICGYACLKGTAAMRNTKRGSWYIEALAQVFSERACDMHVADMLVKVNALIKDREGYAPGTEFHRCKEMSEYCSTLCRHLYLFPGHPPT
# B1: ICE-Like (other)
# chain: MADQLLRKKRRIFIHSVGAGTINALLDCLLEDEVISQEDMNKVRDENDTVMDKARVLIDLVTGKGPKSCCKFIKHLCEEDPQLASKMGLH
# modifications: 35S-methionine label in the in vitro assay
# notes: Used for the 35S-labelled in vitro translated product (made from a pcDNA3 construct); also called 35S-labeled ICE-Like; in vitro translated ICE-Like
# B2: GST-conjugated ICE-Like (other)
# chain: B1 chain
# notes: GST is put first by the usual make of pGEX vectors; also called ICE-Like-GST; GST-ICE-Like; not shown: glutathione-S-transferase (GST) from vector pGEX-5X 3
# B3: T7-tagged ICE-Like (other, not shown: small tags and cut ends)
# chain: B1 chain
# notes: Expressed from pcDNA3 in 293 T cells, or from pMSCVneo retroviral vector in THP-1 cells; also called T7-ICE-Like
# B4: Pseudo-ICE (other)
# chain: MADKVLKEKRKLFIHSMGEGTINGLLDELLQTRVLNQEEMEKVKRENATVMDKTRALIDSVIPKGAQACQICITYICEEDSYLAETLGLSAGPIPGN
# modifications: 35S-methionine label in the in vitro assay
# notes: Used for the 35S-labelled in vitro translated product (made from a pcDNA3 construct); also called 35S-labeled Pseudo-ICE; in vitro translated Pseudo-ICE
# Key:
# pro-caspase-4 = biological target: T1, pro-caspase-4; assay: GST pull-down in vitro or co-immunoprecipitation from 293 T cells (data not shown)
# Procedure: (§1) Cells were then centrifuged at 10000 g for 15 min and supernatants were incubated for 2 h at 4° C. with gluthatione Sepharose 4B resin (Amersham Pharmacia Biotech). The protein-bound resin (30 μl) was washed with GST buffer and incubated overnight at 4° C. in the presence of 5 μl of ³⁵S-labeled in vitro-translated products. Labeled proteins were prepared from pcDNA3 constructs by in vitro transcription and translation in the presence of ³⁵S-methionine using T7-coupled transcription/translation TNT kit according to the manufacturer's instructions (Promega, Madison, Wis.). Samples of the protein-bound resins were washed three times in GST buffer, boiled in sodium dodecyl sulfate (SDS) Laemmli sample buffer and fractionated by electrophoresis on an SDS-polyacrylamide gel. Proteins were then visualized by autoradiography.
# (§2) Human embryonic kidney 293 T cells, were cultured in […] dishes in Dulbecco modified essential medium (DMEM) supplemented with 10% fetal bovine serum (FBS) and antibiotics (Life Technologies). Cells at 50% confluency, were transiently co-transfected with equal amounts of T7-pcDNA3 and Flag-pCMV2 constructs (total DNA of 10 μg/dish) in OptiMEM using the lipofectamine method according to the manufacturer's recommendations (Life Technologies). Twelve hours after transfection, OptiMEM was replaced with DMEM/10% FBS. Twenty four hours later, cells were lysed in 300 μl of a buffer containing 25 mM tris(hydroxymethylaminomethane), pH 7.6, 150 mM NaCl, 1% nonidet-P40, and PMSF. Samples were centrifuged. One third of the supernatant was put aside to verify by Western blot the expression of the proteins. The remaining 200 μl of supernatant were incubated for 2 h at 4° C. with anti-Flag M5 plus M2 monoclonal antibodies (Ab; Sigma). The immune complexes were precipitated overnight at 4° C. with protein-G Sepharose (Amersham-Pharmacia Biotech), washed extensively and then eluted by boiling in SDS-sample buffer. The eluted proteins were resolved by SDS-PAGE and detected by Western blot analysis with horseradish peroxidase (HRP)-conjugated anti-T7 Ab (Novagen, Madison, Wis.). Bands were then detected using enhanced chemoluminescence kit (Amersham Pharmacia Biotech).
# c-CLAP = biological target: T2, c-CLAP; assay: as above
# Procedure: as §1, §2
# c-IAP2 = c-IAP2 (UniProt Q13489 1-604, limits assumed); assay: as above
# Procedure: as §1, §2
# Apaf-1 = biological target: T3, Apaf-1; assay: as above
# Procedure: as §1, §2
# pro-caspase-2 = biological target: T4, pro-caspase-2; assay: as above
# Procedure: as §1, §2
# CRADD [1] = biological target: T5, CRADD (human, UniProt P78560 1-199, limits assumed); assay: GST pull-down in vitro or co-immunoprecipitation from 293 T cells (T7-CRADD with Flag-ICE-Like, Panel C of FIG. 2)
# T5 construct: also called T7-tagged CRADD
# Procedure: as §2, with “buffer.” for “buffer. The eluted proteins were resolved by SDS-PAGE and detected by Western blot analysis with horseradish peroxidase (HRP)-conjugated anti-T7 Ab (Novagen, Madison, Wis.). Bands were then detected using enhanced chemoluminescence kit (Amersham Pharmacia Biotech).”
# GST = biological target: T6, GST (UniProt P08515 1-218 = GST); assay: GST pull-down on glutathione resin of in vitro translated 35S-labeled protein, autoradiography [panel B]
# T6 construct: also called gluthatione-S-transferase; GST alone
# Procedure: as §1
# RICK [2] = biological target: T7, RICK (UniProt O43353 1-540, limits assumed, 35S label in the in vitro assay); assay: restated from Example 3; construct not named
# T7 construct: also called 35S-labeled RICK; RIP2
# RICK [3] = biological target: T7, RICK; assay: GST pull-down of 35S-labelled RICK (data not shown)
# Procedure: as §1
# Flag-tagged RICK = biological target: T8, Flag-tagged RICK (UniProt O43353 1-540); assay: co-immunoprecipitation from 293 T cells cotransfected with Flag-RICK, T7-Casp1C/A and rising amounts of T7-ICE-Like: IP anti-Flag, western blot anti-T7 [panel B]
# T8 construct: Expressed in 293 T cells, precipitated with anti-Flag antibodies; also called Flag-RICK; RIP2; not shown: Flag tag
# Procedure: as §2
# CRADD [4] = biological target: T5, CRADD; assay: GST pull-down in vitro or co-immunoprecipitation from 293 T cells (T7-CRADD with Flag-Pseudo-ICE, Panel C of FIG. 2)
# Procedure: as §2, with “buffer.” for “buffer. The eluted proteins were resolved by SDS-PAGE and detected by Western blot analysis with horseradish peroxidase (HRP)-conjugated anti-T7 Ab (Novagen, Madison, Wis.). Bands were then detected using enhanced chemoluminescence kit (Amersham Pharmacia Biotech).”
# T7 sequence (O43353 whole entry): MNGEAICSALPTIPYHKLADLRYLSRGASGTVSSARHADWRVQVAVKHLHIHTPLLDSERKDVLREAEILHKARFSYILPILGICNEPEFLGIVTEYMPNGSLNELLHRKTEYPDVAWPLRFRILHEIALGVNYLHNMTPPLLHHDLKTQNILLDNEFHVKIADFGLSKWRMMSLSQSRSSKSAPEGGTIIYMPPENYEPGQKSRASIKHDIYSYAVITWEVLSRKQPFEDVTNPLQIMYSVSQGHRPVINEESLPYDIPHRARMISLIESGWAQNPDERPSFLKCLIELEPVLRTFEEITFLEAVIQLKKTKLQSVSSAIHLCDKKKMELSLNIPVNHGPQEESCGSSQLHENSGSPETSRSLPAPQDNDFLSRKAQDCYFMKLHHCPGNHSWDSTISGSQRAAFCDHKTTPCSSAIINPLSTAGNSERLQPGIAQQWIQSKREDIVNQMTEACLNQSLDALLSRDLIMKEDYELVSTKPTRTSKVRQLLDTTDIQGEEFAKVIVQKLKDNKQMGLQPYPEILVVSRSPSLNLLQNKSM
# T5 sequence (P78560 whole entry): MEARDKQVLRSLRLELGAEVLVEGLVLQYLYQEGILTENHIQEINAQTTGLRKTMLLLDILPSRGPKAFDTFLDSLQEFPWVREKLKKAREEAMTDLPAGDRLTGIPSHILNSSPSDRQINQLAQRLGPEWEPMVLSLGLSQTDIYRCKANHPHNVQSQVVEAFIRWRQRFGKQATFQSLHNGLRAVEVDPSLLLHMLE
# c-IAP2, sequence (Q13489 whole entry): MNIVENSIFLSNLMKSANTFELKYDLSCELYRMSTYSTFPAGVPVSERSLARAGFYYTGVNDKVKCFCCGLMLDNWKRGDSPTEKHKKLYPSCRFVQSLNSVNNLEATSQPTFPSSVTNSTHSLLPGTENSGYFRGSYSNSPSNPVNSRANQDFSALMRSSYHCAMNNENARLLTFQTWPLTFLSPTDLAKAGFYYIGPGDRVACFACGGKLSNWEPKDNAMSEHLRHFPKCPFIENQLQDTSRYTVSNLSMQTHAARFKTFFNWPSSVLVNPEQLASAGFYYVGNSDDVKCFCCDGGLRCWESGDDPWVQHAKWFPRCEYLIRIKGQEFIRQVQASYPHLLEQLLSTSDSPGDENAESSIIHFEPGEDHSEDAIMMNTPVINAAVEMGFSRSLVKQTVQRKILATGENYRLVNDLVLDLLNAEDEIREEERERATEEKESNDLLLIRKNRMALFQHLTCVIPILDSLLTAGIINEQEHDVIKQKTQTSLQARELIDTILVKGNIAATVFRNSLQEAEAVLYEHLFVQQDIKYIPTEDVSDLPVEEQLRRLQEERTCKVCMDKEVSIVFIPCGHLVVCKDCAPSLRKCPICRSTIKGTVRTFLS
# T6 sequence (P08515 whole entry): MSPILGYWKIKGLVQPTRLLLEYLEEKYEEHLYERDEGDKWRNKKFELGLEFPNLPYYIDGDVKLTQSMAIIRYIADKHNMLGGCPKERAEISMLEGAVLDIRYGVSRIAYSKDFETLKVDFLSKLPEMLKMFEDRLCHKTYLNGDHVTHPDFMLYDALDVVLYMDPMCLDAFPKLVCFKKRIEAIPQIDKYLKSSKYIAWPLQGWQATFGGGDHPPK
# T8 sequence (O43353 whole entry): as the sequence (O43353 whole entry) above
Binder,binding result (pro-caspase-4),binding result (c-CLAP),binding result (c-IAP2),binding result (Apaf-1),binding result (pro-caspase-2),binding result (CRADD [1]),binding result (GST),binding result (RICK [2]),binding result (RICK [3]),binding result (Flag-tagged RICK),binding result (CRADD [4])
B1,no binding,no binding,no binding,no binding,no binding,no binding,no binding,no binding,–,–,–
B2,–,–,–,–,–,–,–,–,no binding,–,–
B3,–,–,–,–,–,–,–,–,–,no binding,–
B4,no binding,no binding,no binding,no binding,no binding,–,no binding,binds,–,–,no binding

# — patent US20030166192A1 (published 2003)
